The text below walks through data of the supplement of paper PMC9170038.

In the series the test system is MS2 coat protein. Briefly: apparent KD of MS2 coat protein; designed switch direction (-1 OFF switch, 1 ON switch): 1; higher = weaker reporter binding. The method, boiled down: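 The reported apparent KD is a per-design median over clusters, from curve fits of normalised cluster fluorescence. Protein titrations used SNAP-549-labelled MS2 coat protein, doubled from 0.7 or 1.5 nM to 3 µM, in Tris-HCl pH 7.5 buffer with KCl, MgCl2, BSA, DTT, tRNA and Tween-20, with no input, 200 uM small-molecule ligand, or an oligonucleotide input. The RNA switches were transcribed on Illumina chips by stalled E. coli RNA polymerase.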

Where [1] appears, read: input ligand: microRNA oligo, concentration not stated.
Where [2] appears, read: Eterna round: R95, input ligand: FMN 200 uM.
The mark [3] stands for this setting: Eterna round: R95, input ligand: microRNA oligo, concentration not stated.
[4] abbreviates: Eterna round: R95, input ligand: none.

On to “GGCCAGAGUCAAGGAUAUGCUACCGUUUCGGUAGCAGAAGGUGAUCACAUGAGGAUCACCCAUGUAUACUGCGAGAGUAGGGCC [JL SSNG1 3.66] (Eterna round: R96, puzzle: Same State NG 1)”, for which the “apparent KD of MS2 coat protein” value by setting is: (input ligand: FMN 200 uM) 94.5 nM; under setting [1], 23.6 nM; (input ligand: none) 197 nM.
Regarding “UGUUGUAUUACAGGAUAUCUAUUAUUUGUAUUUAGAGAAGGGUAUUCACAUGAGGAUCACCCAUGUAUAUACGAGGAAGUUGUG [JMF's solution 20] (Eterna round: R96, puzzle: Same State NG 1)”, the “apparent KD of MS2 coat protein” value under setting [1] was determined as 42.4 nM.
Regarding “UACUGAGUCGUAGGAUAUGUAGGAUAUGGCGAGAGCUAAGCUUGGAAGUCACUUCAGCCAGAAGGACAGAAGGACGACUCUCUC [pwkr ssNG2 2FMN + F9.13] (Eterna round: R96, puzzle: Same State NG 2)”, the “apparent KD of MS2 coat protein” value reads like this: (input ligand: FMN 200 uM) 40 nM; under setting [1], 273 nM; (input ligand: none) 51.1 nM.
In the case of “AGUCCAGCCUGAGCUGGACAAAAGCAUGUACAUGAGGAUCACCCAUGUCAUGUACAAGCUUUUUGCUCGUCUUAAAU [Mat - hsa-mir-208a - Mod of JL - D22] (puzzle: Sensor for hsa-mir-208a)”, the “apparent KD of MS2 coat protein” value is 585 nM under setting [2], 16.4 nM under setting [3] and 584 nM under setting [4].
For the sequence “GGUCGGACUCACAUGAGGAUCACCCAUGUUGCGGAAACGCGGCAGGAUAUCUGUCCGAAAAGGUCAGAGAAGGGCUAACCGACC [Fiskers NG3ss - 56] (Eterna round: R96, puzzle: Same State NG 3)”, the “apparent KD of MS2 coat protein” value (input ligand: FMN 200 uM) amounted to 52.2 nM, the “apparent KD of MS2 coat protein” value under setting [1] was 254 nM and the “apparent KD of MS2 coat protein” value (input ligand: none) worked out at 343 nM.
For “UGUUGUAUUACAGGAUAUCUAUUGUUUUUUUUUAGAGAAGGGUAUUCACAUGAGGAUCACCCAUGUAUAUACGAGGAAGUUGUG [JMF's solution 79] (Eterna round: R96, puzzle: Same State NG 1)”, under setting [1], the “apparent KD of MS2 coat protein” value worked out at 43.2 nM.
With “GGCCAGAGUCAAGGAUAUGCUACCGUUUCGGUAGCAGAAGGUGAUCACAUGAGGAUCACCCAUGUUUACUGCGAGAGCAUGGCC [JL SSNG1 3.68] (Eterna round: R96, puzzle: Same State NG 1)”, the “apparent KD of MS2 coat protein” value stood at 809 nM (input ligand: FMN 200 uM), 103 nM under setting [1] and 34.1 nM (input ligand: none).
In the same order, the values of “AAACAUGAGCGAGGAUAUACAUGAGGAUCACCCGUAGAAGGCGCAUGUAAAACAACAUGAGGAUCACCCAUGUCAUGUACAUGA [Same State NG1 S1] (Eterna round: R96, puzzle: Same State NG 1)” are 61.5 nM, 55 nM and 66.9 nM.
With “AAAAUGUGAUGUCACAUGAGGAUCACCCAUGUGGUGACAACUAAGGAUAUAACGAACCAAGGCGAUUAGAAGGUAGGAUCACAA [AK SSNG3-V2-17] (Eterna round: R96, puzzle: Same State NG 3)”, the “apparent KD of MS2 coat protein” value turned out to be 102 nM (input ligand: FMN 200 uM), 120 nM under setting [1] and 207 nM (input ligand: none).
On the same counts, the results for “AGCCGAGACUGAGGAUAUUUGUAUCUACAUGAGGAUCACCCAUGUAGCAACACGUGGUAGUGAUCGAAGAAGGCAGCUCGGCGC [MOD2 of Omei's SS(NG)2 Cv2] (Eterna round: R96, puzzle: Same State NG 2)” are 54 nM, 282 nM and 291 nM.
On the same counts, the results for “UUAAUUUGUUGAGGAUAUUAUGUCAAAAGAGAAGACAUGAGGAUCACCCAUGUGAGAAAAGGUUUUAAGAAGGCAACAUUCAUA [JR_SSNG2_Sub089] (Eterna round: R96, puzzle: Same State NG 2)” are 39.5 nM, 77.7 nM and 115 nM.
On the same counts, the results for “AUAAAUAACACAGGAUAUCCGCACGAGUAGUACGGAGAAGGGUGAACGUCGGCUCUCGCCAACAUGAGGAUCACCCAUGUAAAA [Usesesana] (Eterna round: R96, puzzle: Same State NG 1)” are 1160 nM, 432 nM and 734 nM.
“UUGAAGAAUUAAGGAUAUUGAGUACAUAUGUAAAACAUGAGGAUCACCCAUGUGGGUUGCGGUAUCGAGAAGGUAAAUUACUAG [Mat - same State NG 2 - JL mod - D69] (Eterna round: R96, puzzle: Same State NG 2)”: the “apparent KD of MS2 coat protein” value reads like this: (input ligand: FMN 200 uM) 69.9 nM; under setting [1], 66.2 nM; (input ligand: none) 65.9 nM.
On the same counts, the results for “CCUUAACAGUGAGGAUAUCGUUGCGAUAAGUGACGAGAAGGCACUCAUGUGAAAUAAACAUACAUGAGGAUCACCCAUGUUGUG [Omei SS(NG)1 Bv5] (Eterna round: R96, puzzle: Same State NG 1)” are 34.4 nM, 40 nM and 44.2 nM.
As to “UAUUUAAUCAUAGGAUAUAGUGUGAAAUUUGGACUAGAAGGAUGUAACAUGAGGAUCACCCAUGUGGUAAGUGGGACACAGUGA [JR_SSNG1_Sub096] (Eterna round: R96, puzzle: Same State NG 1)”, under setting [1], the “apparent KD of MS2 coat protein” value came out at 114 nM.
For the sequence “ACAGAGGGAAGACAGGAUAUUCGCGAUGGCACAUGAGGAUCACCCAUGUUUUGAGCACAUAAACAGAAGAAGGGUUAAAACUCAG [Veceanve] (puzzle: Same State 2)”, the “apparent KD of MS2 coat protein” value is 21.4 nM under setting [2], 132 nM under setting [3] and 215 nM under setting [4].
For the sequence “AUAAAACAUGAGGAUCACCCAUGUCAACAAAAUCGAGGAUAUGGACAGACUUCGGUCUGUCCAGAAGGCGAAUAAU [salish99_ss1_r3_100] (Eterna round: R96, puzzle: Same State 1)”, the “apparent KD of MS2 coat protein” value is 15.1 nM (input ligand: FMN 200 uM), 12.7 nM under setting [1] and 17.4 nM (input ligand: none).
In the same order, the values of “GCCGGCUGGUGAGGAUAUGGCGCCUUGUUGGUGCCAGAAGGCAUGUCAAUUGACAUGAGGAUCACCCAUGUGUUGUCGUUGGCG [salish99_SSNG1_r04_611] (Eterna round: R96, puzzle: Same State NG 1)” are 808 nM, 110 nM and 459 nM.
On the same counts, the results for “AUGCCAAAGCGAGGAUAUGGAGCCUUAUUGGCUCCAGAAGGUGUGACAUGAGGAUCACCCAUGUGGCAGUGGUCUAAUGACCAC [Eli NG1ss - 41] (Eterna round: R96, puzzle: Same State NG 1)” are 63.3 nM, 64.6 nM and 86.7 nM.
Regarding “AGCUAUUAAUCAGGAUAUAGGGACAUGAGGAUCACCCAUGUGUACAUGAUAAAAUGUGAUCACGUCUAGAAGGGAUUACUAACA [SameState NG2 #39] (Eterna round: R96, puzzle: Same State NG 2)”, the “apparent KD of MS2 coat protein” value under setting [1] is 52.5 nM.
For “GCCAACUUAUGAGGAUAUGGCACCUUAUUGGUGCCAGAAGGCAUGUGAAUUCACAUGAGGAUCACCCAUGUAUUAUAGUUGGCA [Fiskers NG1ss - 20] (Eterna round: R96, puzzle: Same State NG 1)”, the “apparent KD of MS2 coat protein” value worked out at 32.2 nM (input ligand: FMN 200 uM), 221 nM under setting [1] and 356 nM (input ligand: none).
